The values that follow are results of earlier work, collected in paper PMC6589385.

The target in the data set is His37 (UniProt position 37, IIGILHLILWI). Nature of the data set: NMR. Particulars: Membrane-bound wild-type AM2 tetrameric channel.

The pKa is the pH at which an ionisable group is half protonated. On to “Influenza A virus M2 protein (AM2) transmembrane domain, wild type (Influenza A virus)”, for which the pKa is recorded as 5.9.
